Measurements taken from US7884067B2, “Peptides derived from cadherin and methods of use thereof” (Mount Sinai School of Medicine of New York University, priority 2001, dated 2011).

B1: N-Cad/CTF2: chicken cytoplasmic domain of N-cadherin (N-Cad/CTF2) inserted into vector pECE, expressed in L cells (protein)
chain: KRRDKERQAKQLLIDPEDDVRDNILKYDEEGGGEEDQDYDLSQLQQPDTVEPDAIKPVGIRRLDERPIHAEPQYPVRSAAPHPGDIGDFINEGLKAADNDPTAPPYDSLLVFDYEGSGSTAGSLSSLNSSSSGGEQDYDYLNDWGPRFKKLADMYGGGDD

Tests used:
E-cadherin = E-cadherin cleavage in staurosporine-treated (apoptotic) A431 cells (Western blot); type: cell-based, human
Description: Cell Cultures and transfections. Cells were grown in Dulbecco's Modified Eagle Medium (DMEM) plus 10% fetal bovine serum, penicillin and streptomycin in 5% CO2 at 37° C. […] A431 cells were from American Type Culture Collection. […] A431D cells stably transfected with wild-type or GGG759-761AAA mutant E-cadherin were provided by Dr. A. B. Reynolds.
Immunoprecipitations (IPs), immunoblotting, immunofluorescence and confocal microscopy. For WB analysis of cell extracts, cells were washed with PBS and then solubilized in RIPA buffer. For IPs cells were solubilized in Hepes buffer (25 mM Hepes [pH 7.4], 150 mM NaCl, 1× Complete protease inhibitor cocktail, Roche) containing 1% digitonin (IPs with I-R222 and PI-R222 antibodies) or 1% Triton X-100 (IPs with β-catenin and desmoglein antibodies). Following centrifugation at 17,000×g for 10 min, supernatants (1 mg protein) were pre-cleared with protein A- or protein G-agarose (Pierce) for 2 hours. Supernatants were then incubated with antibodies overnight at 4° C. and treated for 2 hours with protein A-agarose (polyclonal antibodies) or with protein G-agarose (monoclonal antibodies). IPs were washed with Hepes buffer containing either 1% digitonin or 1% Triton X-100 and analyzed by SDS-PAGE. Immunofluorescence and confocal microscopy was performed as described by Georgakopoulos et al., (1999). Briefly, cells were plated on 22×22 mm collagen-coated glass coverslips, fixed in cold methanol for 10 min at −20° C. Following washing in TBS (25 mM Tris-HCl [pH 7.4], 150 mM NaCl), cells were treated with 10% goat serum in SuperBlock (Pierce) for 1 hour, incubated overnight with primary antibody (1:100), washed in TBS and then were incubated with species specific Alexa Fluor™ secondary antibody conjugates (Molecular Probes). Cells were washed with TBS, mounted with Prolong antifade kit (Molecular Probes), and photographed on a Leica confocal laser scanning microscope.
Conditional media (20 μl) from A431 cells cultured in the absence or presence of […] and treated with SDS as above were probed on Western blots with anti-E-cadherin ectodomain antibody H108.

N-cadherin = assay: In vitro ε-cleavage assay, membranes from mouse fibroblasts or N2a cell cultures; type: biochemical; set-up: dose or concentration left out as unconfirmed; conditions: cultures incubated 16 hours with L-685,458; membranes 37° C. 2 hours
Description: In vitro γ-secretase-like ε-cleavage assay. Cells were washed in PBS, resuspended in 1 ml of 4° C. hypotonic buffer (10 mM MOPS, pH 7.0, 10 mM KCl) and homogenized on ice. A post-nuclear supernatant was prepared by centrifugation at 1000×g for 15 minutes at 4° C. Crude membranes were isolated from the post-nuclear supernatant by centrifugation at 16,000×g for 40 minutes at 4° C. The membranes were then resuspended in […] of assay buffer (150 mM sodium citrate, pH 6.4, 1× Complete protease inhibitor cocktail), and incubated at 37° C. for 2 hours. Samples were either analyzed directly by WB or separated into pellet (P100) and supernatant (S100) fractions by ultracentrifugation for 1 hour at 100,000×g at 4° C. The S100 and P100 fractions were then analyzed by WB.
To detect the product of the PS1-dependent cleavage of N-cadherin, an in vitro assay that uses incubation of membrane fractions to detect the ICD product of the E-cleavage of APP was used. (Gu et al. (2001) J. Biol. Chem. 276:35235-35238; McLendon et al. (2000) FASEB J. 14:2383-2386). […]

c-fos = c-fos mRNA (RT-PCR) and protein (Western blot) in L cells; type: cell-based
Description: Reverse Transcriptase (RT)-PCR Analysis. Total RNA was extracted from cells using a RNeasy Mini Kit (Qiagen) according to instructions by the manufacturer. Analysis of gene expression was performed using semiquantitative RT-PCR. The following primers were used: 5′-[…]-3′ (SEQ ID NO: 13) and 5′-[…]-3′ (SEQ ID NO: 14) for c-fos; 5′-[…]-3′ (SEQ ID NO: 15) and 5′-[…]-3′ (SEQ ID NO: 16) for gapdh.
Semi-quantitative RT-PCR was used to determine relative levels of c-fos or gapdh mRNAs from L cells transfected either with vector (vector) or with 0.5 mg of pN-Cad/CTF2 (N-Cad/CTF2). The graph in FIG. 9C represents the relative abundance of c-fos-specific PCR products following quantitation of the mRNA signals shown in the upper panel.
Extracts from L cells transfected with increasing amount of pN-Cad/CTF2 were probed on WBs with anti-c-fos (FIG. 9D, upper panel), anti-β-tubulin (FIG. 9D, middle panel) or C32 (FIG. 9D, lower panel) antibodies. Bars in lower panel represent the relative amounts of c-fos protein detected on WBs shown in the upper panel.

Row | Molecule | production of the 33 kDa cadherin fragment (E-Cad/CTF2) (E-cadherin; 30 minutes preincubation with L-685,458 (0.5 μM), then STS 6 hours) | E-Cad/CTF1 level on inhibition of E-Cad/CTF2 (E-cadherin; L-685,458 (0.5 μM), STS 6 hours) | soluble 35 kDa peptide N-Cad/CTF2 (N-cadherin) | cellular c-fos mRNA (c-fos; 0.5 mg of pN-Cad/CTF2, vs vector, FIG. 9C) | c-fos protein (c-fos; increasing amount of pN-Cad/CTF2, FIG. 9D) | levels of β-tubulin (c-fos; pN-Cad/CTF2, FIG. 9D) | expression of gapdh mRNA (c-fos; pN-Cad/CTF2 vs vector, FIG. 9C)
1 | CC(C)C[C@H](NC(=O)[C@H](Cc1ccccc1)C[C@@H](O)[C@H](Cc1ccccc1)NC(=O)OC(C)(C)C)C(=O)N[C@@H](Cc1ccccc1)C(N)=O [L-685,458] | completely blocked | increase in E-Cad/CTF1 | completely absent |  |  |  | 
2 | B1 |  |  |  | markedly reduces | markedly reduces | no effect | no effect
